Earlier results, collected in publication PMC7611479.

Assays:
guanylin (Homo sapiens) = guanylin (Homo sapiens) (UniProt Q02747)
[1] = biological target: uroguanylin (Homo sapiens) (UniProt Q16661)

Kd (guanylin (Homo sapiens)): 10 nM | Kd [1]: 1 nM
Substance: GC-C ECD (from UniProt P25092)
